# From publication PMC5283298
# Columns and labels:
# HaloTag-KIF21B 1-657 = assay: single-molecule photobleaching step counting
# [1] = target: microtubules (polymer of alpha and beta tubulin); assay: single-molecule TIRF microscopy on microtubules
# [2] = target: HaloTag-KIF21B full-length (FL); assay: single-molecule photobleaching step counting
# Chain of HaloTag-KIF21B full-length (FL) (natural protein) (O75037 whole entry): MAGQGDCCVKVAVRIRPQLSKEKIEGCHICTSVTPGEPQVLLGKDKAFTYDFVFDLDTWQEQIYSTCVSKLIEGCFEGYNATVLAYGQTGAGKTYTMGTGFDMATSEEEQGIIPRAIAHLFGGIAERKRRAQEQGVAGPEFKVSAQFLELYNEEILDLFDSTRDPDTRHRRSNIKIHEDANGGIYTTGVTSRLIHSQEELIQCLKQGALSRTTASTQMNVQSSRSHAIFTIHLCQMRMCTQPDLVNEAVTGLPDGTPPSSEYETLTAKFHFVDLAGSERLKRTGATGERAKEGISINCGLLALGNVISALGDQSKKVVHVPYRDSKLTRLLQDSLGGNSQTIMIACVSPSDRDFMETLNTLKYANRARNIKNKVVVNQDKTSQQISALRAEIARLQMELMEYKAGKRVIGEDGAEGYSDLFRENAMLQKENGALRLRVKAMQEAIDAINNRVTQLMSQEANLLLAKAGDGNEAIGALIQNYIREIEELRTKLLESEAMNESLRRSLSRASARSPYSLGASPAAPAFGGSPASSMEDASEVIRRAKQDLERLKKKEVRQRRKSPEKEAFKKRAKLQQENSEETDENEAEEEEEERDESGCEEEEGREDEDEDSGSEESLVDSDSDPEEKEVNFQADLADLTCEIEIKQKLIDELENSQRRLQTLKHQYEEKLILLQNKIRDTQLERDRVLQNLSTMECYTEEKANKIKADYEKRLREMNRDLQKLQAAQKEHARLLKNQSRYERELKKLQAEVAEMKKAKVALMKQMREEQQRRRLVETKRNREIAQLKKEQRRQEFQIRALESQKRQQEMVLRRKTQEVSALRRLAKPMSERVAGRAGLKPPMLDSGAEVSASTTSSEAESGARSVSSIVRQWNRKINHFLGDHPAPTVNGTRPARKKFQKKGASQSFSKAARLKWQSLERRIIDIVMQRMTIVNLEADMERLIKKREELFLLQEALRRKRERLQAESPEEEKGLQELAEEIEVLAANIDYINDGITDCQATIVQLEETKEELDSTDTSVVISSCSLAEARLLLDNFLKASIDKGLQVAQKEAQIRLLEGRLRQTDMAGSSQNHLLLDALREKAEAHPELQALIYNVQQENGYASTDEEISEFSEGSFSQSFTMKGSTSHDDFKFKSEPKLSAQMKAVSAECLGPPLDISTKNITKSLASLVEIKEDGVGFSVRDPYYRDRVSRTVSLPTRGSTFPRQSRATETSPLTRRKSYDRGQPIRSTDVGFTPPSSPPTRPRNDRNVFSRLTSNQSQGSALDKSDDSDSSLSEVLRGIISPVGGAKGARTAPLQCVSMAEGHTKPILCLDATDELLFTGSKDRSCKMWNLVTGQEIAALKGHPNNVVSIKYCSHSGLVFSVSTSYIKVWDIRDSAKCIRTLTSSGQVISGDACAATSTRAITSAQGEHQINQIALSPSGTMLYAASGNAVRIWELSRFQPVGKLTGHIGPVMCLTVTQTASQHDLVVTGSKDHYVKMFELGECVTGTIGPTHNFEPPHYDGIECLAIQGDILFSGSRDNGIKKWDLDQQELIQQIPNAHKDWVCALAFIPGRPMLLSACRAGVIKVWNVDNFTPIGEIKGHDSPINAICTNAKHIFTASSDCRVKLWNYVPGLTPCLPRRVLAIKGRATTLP
# Chain of HaloTag-KIF21B 1-657 (domain or fragment) (O75037 1-657): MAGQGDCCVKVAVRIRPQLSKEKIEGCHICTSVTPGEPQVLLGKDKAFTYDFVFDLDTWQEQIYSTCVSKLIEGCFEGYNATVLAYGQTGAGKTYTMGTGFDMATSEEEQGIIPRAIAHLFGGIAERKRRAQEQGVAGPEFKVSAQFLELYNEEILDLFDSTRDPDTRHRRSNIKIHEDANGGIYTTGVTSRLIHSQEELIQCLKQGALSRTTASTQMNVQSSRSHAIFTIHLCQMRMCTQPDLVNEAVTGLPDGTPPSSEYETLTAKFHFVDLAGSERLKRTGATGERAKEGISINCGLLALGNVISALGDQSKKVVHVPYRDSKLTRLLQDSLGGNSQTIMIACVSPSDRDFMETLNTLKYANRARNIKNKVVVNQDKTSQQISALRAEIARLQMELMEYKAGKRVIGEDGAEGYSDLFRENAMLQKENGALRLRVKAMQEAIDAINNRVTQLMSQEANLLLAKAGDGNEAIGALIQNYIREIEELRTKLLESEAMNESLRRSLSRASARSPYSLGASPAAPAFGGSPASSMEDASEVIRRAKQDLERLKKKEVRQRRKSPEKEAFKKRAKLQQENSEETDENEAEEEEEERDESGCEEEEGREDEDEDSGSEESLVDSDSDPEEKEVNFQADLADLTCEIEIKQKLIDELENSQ
# Chain of microtubules (polymer of alpha and beta tubulin) (P68363 whole entry, chain 1 of 2): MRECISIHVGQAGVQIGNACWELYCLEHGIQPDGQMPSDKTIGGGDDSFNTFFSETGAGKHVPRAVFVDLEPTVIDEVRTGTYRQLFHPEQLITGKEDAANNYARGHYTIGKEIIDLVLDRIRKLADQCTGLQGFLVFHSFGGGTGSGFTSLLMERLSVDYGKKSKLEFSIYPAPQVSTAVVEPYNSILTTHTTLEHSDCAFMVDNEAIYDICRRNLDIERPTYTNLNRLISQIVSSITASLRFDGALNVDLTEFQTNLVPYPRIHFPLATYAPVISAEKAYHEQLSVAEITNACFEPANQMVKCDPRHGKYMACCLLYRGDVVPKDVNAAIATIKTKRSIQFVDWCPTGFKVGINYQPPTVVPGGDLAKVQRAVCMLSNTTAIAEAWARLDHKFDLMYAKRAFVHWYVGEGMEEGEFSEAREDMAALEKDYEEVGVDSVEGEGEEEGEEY
# Chain of microtubules (polymer of alpha and beta tubulin) (A8K068 whole entry, chain 2 of 2, further chain): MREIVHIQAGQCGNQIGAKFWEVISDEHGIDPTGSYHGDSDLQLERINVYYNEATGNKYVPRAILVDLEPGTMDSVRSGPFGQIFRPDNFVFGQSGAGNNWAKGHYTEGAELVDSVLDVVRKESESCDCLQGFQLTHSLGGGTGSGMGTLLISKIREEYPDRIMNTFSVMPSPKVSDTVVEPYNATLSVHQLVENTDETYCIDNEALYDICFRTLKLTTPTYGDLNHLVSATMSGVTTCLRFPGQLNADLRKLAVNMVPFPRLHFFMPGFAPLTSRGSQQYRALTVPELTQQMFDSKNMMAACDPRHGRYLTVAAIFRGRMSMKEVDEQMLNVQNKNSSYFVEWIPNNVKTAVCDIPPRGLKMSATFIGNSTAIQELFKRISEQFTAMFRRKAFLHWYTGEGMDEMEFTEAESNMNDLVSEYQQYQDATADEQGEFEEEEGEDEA
Substance,stoichiometry N (HaloTag-KIF21B 1-657),particles per μm MT (particles/μm MT) [1],stoichiometry N [2]
HaloTag-KIF21B 1-657 (domain or fragment),2,0.067,
HaloTag-KIF21B full-length (FL) (natural protein),,0.5,2
